Reference: patent publication US11110115B2, “Nucleic acid molecule with anti-inflammatory and anti-coagulant and organ-protective properties” (APTAHEM AB, priority 2017, dated 2021)

What was measured:
[1] = LPS-induced mortality, survival assay; assay type: in vivo, C57BL/6 mice; conditions: 72 hours
Experimental: In this study, female C57BL/6 mice of 10-12 weeks old (Taconic Biosciences) were used. Animals had free access to autoclaved and acidified drinking water. Animals were housed under standard laboratory conditions, air conditioned and filtered with adequate fresh air supply. Animals were kept in a climate controlled environment.
Lipopolysaccharide (LPS) from E. coli (O111:B4) was diluted in PBS.
SEQ ID NO:2 was stored in powder form at 4° C. until use. Powder was added to saline and vortexed into solution to prepare SEQ ID NO:2 stock solution.
For all other groups, LPS was injected intraperitoneally at 10 mg/kg. Mice were intravenously injected 15 minutes and 60 minutes after LPS administration with SEQ ID NO:2 at concentrations of 10, 25, 50 and 100 mg/kg. Except group 6, which was intravenously injected once at 15 minutes and once at 120 minutes after LPS administration.
When high doses of LPS are administered, animals will suffer LPS-induced shock and mortality may be observed. For 72 hours after LPS injection, mice were checked for mortality several times each day. All surviving mice were euthanized at the end of the study (day 3).

[2] = Tail bleeding model (bleeding time); assay type: in vivo, Sprague-Dawley rats; conditions: for group average bleeding time compared to matched vehicle group: SEQ ID NO:2 5, 20, 40 mg/kg i.v. 5 min before, Rivaroxaban 10 mg/kg PO 1 hour before, Warfarin 0.5 mg/kg IV
Experimental: A total of 36 Sprague-Dawley male and female rats were utilized and divided into six groups comprising of 6 animals per group. Animal handling was performed according to guidelines of the National Institute of Health and the Association for Assessment and Accreditation of Laboratory Animal Care. Animals were fed ad libitum a commercial rodent diet (Teklad Certified Global 18% Protein Diet cat #: 2018SC). Animals had free access to autoclaved and acidified drinking water (pH between 2.5 and 3.5) obtained from the municipality supply. Animals were housed under standard laboratory conditions, air conditioned and filtered with adequate fresh air supply. Animals were kept in a climate controlled environment.
SEQ ID NO:2 (Biospring) (100 mg) was dissolved in 5 ml saline to form a stock solution of 20 mg/ml. Vehicle (saline) was provided by Pharmaseed as ready to use for i.v. administration. Rivaroxaban (Bayer, Pharmaseed Ltd) dosing solution was diluted at 10 mg/kg (Group 2M). Warfarin (Ceriliant, Pharmaseed Ltd) was diluted at 0.5 mg/kg (Group 3M). Both Rivaroxaban and Warfarin are clinical standards with anticoagulation activity. To obtain SEQ ID NO:2 dosing solution (2.5 mg/ml) for dose level of 5 mg/kg and dose volume of 2 ml/kg for i.v. injection, 0.375 ml of the above 20 mg/ml stock solution was diluted with 2.625 ml of saline (Group 4M). To obtain SEQ ID NO:2 dosing solution (10 mg/ml) for dose level of 20 mg/kg and dose volume of 2 ml/kg for i.v. injection, 1.5 ml of the above 20 mg/ml stock solution was diluted with 1.5 ml saline (Group 5M). To obtain SEQ ID NO:2 dosing solution (20 mg/ml) for dose level of 40 mg/kg and dose volume of 2 ml/kg for i.v. injection, the above 20 mg/ml stock used (Group 6).
Rats were intravenously injected five minutes before bleeding time assay. […] Three treated groups received SEQ ID NO:2 at dose levels of 5, 20 and 40 mg/kg saline solution. In each gender, control groups received saline Vehicle. A positive control group received Rivaroxaban (10 mg/kg). Rivaroxaban was administered by oral gavage 1 hour before bleeding time assay. A second positive control groups received Warfarin (0.5 mg/kg).
Male and female rats were anaesthetized by intraperitoneal injection of ketamine/xylazine. Bleeding time was monitored as described in Stupnisek et al. (2012), until blood flow stopped for a complete 30-sec interval or till the end of 30 min period. In deeply anaesthetized rats (placed in ventral position) the tail was transected with a surgical scalpel 2 mm from the tip (and submerged into a tube with 40 ml of saline at room temperature in vertical position) and the duration and amount of bleeding was measured to evaluate the hemostatic effect of the agents or saline administration. Following the completion of bleeding time evaluation, all rats were immediately sacrificed by CO2 asphyxiation.
Numerical results were given as means±standard errors. If applicable, statistical analysis was carried out using one-way ANOVA followed by Dunnett's Multiple Comparison post Test. A probability of 5% (p≤0.05) was regarded as significant.

[3] = Fibrinogen and D-dimer analysis of plasma in LPS-induced shock; assay type: in vivo, C57BL/6 mice; conditions: blood at Hour 28
Experimental: In this study, female C57BL/6 mice of 10-12 weeks old (Taconic Biosciences) were used. Animals had free access to autoclaved and acidified drinking water. Animals were housed under standard laboratory conditions, air conditioned and filtered with adequate fresh air supply. Animals were kept in a climate-controlled environment. Lipopolysaccharide (LPS) from E. coli (O111:B4) was diluted in PBS. SEQ ID NO:2 was stored in powder form at 4° C. until use. Powder was added to saline and vortexed into solution to prepare SEQ ID NO:2 stock solution. […] For all other groups, LPS was injected intraperitoneally at 10 mg/kg. Mice were intravenously injected 15 minutes and 60 minutes after LPS administration with SEQ ID NO:2 at concentrations of 10, 25, 50 and 100 mg/kg. Except group 7, which was intravenously injected once at 15 minutes and once at 120 minutes after LPS administration. Blood collected at Hour 28 was analysed for fibrinogen and D-dimer analysis from citrated plasma performed by IDEXX Laboratories, Inc. (N. Grafton, Mass.). Hook Laboratories attempted to collect enough blood to run each analysis 5 times for each group, but in one case (citrated plasma for D-dimer, for Group 4) we were able to collect only enough blood to run the analysis 4 times.

[4] = Prothrombin time in arteriovenous shunt model; assay type: in vivo, Sprague-Dawley male rats; conditions: SEQ ID NO:2 33.3 mg/kg i.v. 5 min prior; Rivaroxaban 10 mg/kg p.o. 90 min prior
Experimental: FIG. 2: Anti-coagulant activity of SEQ ID NO:2 in Arteriovenous Shunt model. Male rats were intravenously injected with saline (Vehicle) or SEQ ID NO:2 solution, according to their body weight. Rivaroxaban was orally administered to the positive control group. 5 to 90 minutes after administration, rats were anesthetized with pentobarbital-na (50 mg/kg). The left jugular vein and the right carotid artery of anesthetized rats were connected with two catheters. The thrombus weight formed on the thread was calculated by subtracting the average weight of the rough nylon thread (A). Prothrombin times were measured (B) and Activated partial thromboplastin times (APTT) were analysed (C). Each bar represents the mean±SEM (n=8 for vehicle and rivaroxaban groups, n=3 for SEQ ID NO:2 group), *p<0.05, **p<0.01, ***p<0.001 vs Vehicle.
The animals were assigned to 3 dosing groups according to the body weight (see table 2). Vehicle treated animals were intravenously injected with saline 90 min prior to shunt assay. The positive control treated animals were orally given Rivaroxaban 10 mg/kg at 90 min prior to shunt assay. SEQ ID NO:2 was intravenously injected 5 min prior to shunt assay.

B1: SEQ ID NO:2: nucleic acid sequence of SEQ ID NO:1 in which each C and U is fluorinated to increase stability in plasma (nucleic acid)
chain: GGGAAUUCGAGCUCGGUACCAACAAUACGACUACACCAUCAAAAGUAUUAUCUUGCAUCGAAGGUUGGCACGUAGCAAGCUCUGCAGUCG
modifications: fluorinated C and U; (6)..(7) uracil is fluorinated; (8)..(8) cytosine is fluorinated; (12)..(12) cytosine is fluorinated; (13)..(13) uracil is fluorinated; (14)..(14) cytosine is fluorinated; (17)..(17) uracil is fluorinated; (19)..(20) cytosine is fluorinated; (23)..(23) cytosine is fluorinated; (26)..(26) uracil is fluorinated; (28)..(28) cytosine is fluorinated; (31)..(31) cytosine is fluorinated; (32)
survival compared to vehicle treated mice ([1]; 25 mg/kg i.v. twice after LPS 10 mg/kg i.p.): significantly improved | survival compared to vehicle treated mice ([1]; 50 mg/kg i.v. twice after LPS 10 mg/kg i.p.): significantly improved | survival compared to vehicle treated mice ([1]; 100 mg/kg i.v. twice after LPS 10 mg/kg i.p.): significantly improved | anti-coagulation activity relative to clinical care standards (Rivaroxaban and Warfarin) ([2]; all doses (5, 20, 40 mg/kg i.v.), bleeding time): equivalent | group average bleeding time compared to matched vehicle group ([2]; female rats): increased significantly | dose response effect on bleeding time ([2]; male rats, 5, 20, 40 mg/kg i.v.): can be observed | group average bleeding time compared to matched vehicle group ([2]; male rats): increased significantly | Plasma D-dimer concentrations compared to vehicle treated group ([3]; 50 mg/kg at 60 and 120 minutes after LPS): significantly lower | Plasma D-dimer concentrations compared to vehicle treated group ([3]; 50 mg/kg at 60 and 120 minutes after LPS, listed as Apta-1): greatest reductions | Plasma D-dimer concentrations compared to vehicle treated group ([3]; 100 mg/kg at 15 and 60 min after LPS): significantly lower | D-dimer in plasma, dose dependence ([3]; 10, 25, 50, 100 mg/kg i.v. after LPS): reduced D-dimer in a dose dependent manner | fibrinogen concentrations in plasma compared to vehicle treated mice ([3]; SEQ ID NO:2 treated mice (10, 25, 50, 100 mg/kg i.v.)): no significant differences | Prothrombin times compared to vehicle group [4]: did not show any significant difference
